From patent US5670340

Experiments:
[1] = molecular target: fusion protein encoded by pG97S4DhCT(G)R4 (β-gal97S4D - linker R4 - hCT(G)) (Escherichia coli; human) [β-galactosidase: P00722]
[2] = molecular target: fusion protein encoded by pG97S4DhCT(G)R5 (β-gal97S4D - linker R5 - hCT(G)) (Escherichia coli; human) [β-galactosidase: P00722]
[3] = molecular target: β-gal97S4DhCNP-22R3-2 fusion protein (Escherichia coli; human) [β-galactosidase: P00722]
[4] = molecular target: β-gal97S4DhCNP-22R5-2 fusion protein (Escherichia coli; human) [β-galactosidase: P00722]
[5] = molecular target: β-gal97S4DhCNP-22R5-3 fusion protein (Escherichia coli; human) [β-galactosidase: P00722]

“V8 protease (from UniProt P0C1U8) (enzyme)” gave a cleavage efficiency (hCT(G) released, HPLC) [1] of 97%, a cleavage efficiency (hCT(G) released, HPLC) [2] of 7% and a release efficiency of human CNP-22 (HPLC) [3] of 99%. The release efficiency of human CNP-22 (HPLC) [4] was 95% and the release efficiency of human CNP-22 (HPLC) [5] was 92%.
